Experimental findings from article doi:10.1101/2021.04.13.439655 are described below.

Assay [1] deals with extended construct of the non-phosphorylated Smad2 MH2 domain (S2LMH2). The assay is described as follows: SAXS with ensemble optimization method.
Assay [2] addresses full-length phosphomimetic Smad2 (S2FLEEE) (UniProt Q15796). As to the kind of experiment: SAXS with ensemble optimization method.

full-length phosphomimetic Smad2 (S2FLEEE) (from UniProt Q15796 1-467) (natural protein), sequence (Q15796 whole entry): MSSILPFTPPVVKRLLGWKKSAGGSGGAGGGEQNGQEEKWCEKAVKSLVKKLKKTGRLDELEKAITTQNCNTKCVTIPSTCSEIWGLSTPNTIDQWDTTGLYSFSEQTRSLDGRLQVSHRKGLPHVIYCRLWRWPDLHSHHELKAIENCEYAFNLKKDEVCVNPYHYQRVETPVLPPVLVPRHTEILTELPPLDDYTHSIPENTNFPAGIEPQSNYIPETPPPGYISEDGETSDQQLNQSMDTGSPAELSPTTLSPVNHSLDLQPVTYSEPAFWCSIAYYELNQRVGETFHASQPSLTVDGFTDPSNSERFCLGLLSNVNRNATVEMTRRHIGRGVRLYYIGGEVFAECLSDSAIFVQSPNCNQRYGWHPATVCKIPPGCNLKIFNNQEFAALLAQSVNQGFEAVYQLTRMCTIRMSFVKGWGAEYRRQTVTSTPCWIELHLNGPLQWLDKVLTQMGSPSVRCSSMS
extended construct of the non-phosphorylated Smad2 MH2 domain (S2LMH2) (domain or fragment), sequence (Q15796 269-467): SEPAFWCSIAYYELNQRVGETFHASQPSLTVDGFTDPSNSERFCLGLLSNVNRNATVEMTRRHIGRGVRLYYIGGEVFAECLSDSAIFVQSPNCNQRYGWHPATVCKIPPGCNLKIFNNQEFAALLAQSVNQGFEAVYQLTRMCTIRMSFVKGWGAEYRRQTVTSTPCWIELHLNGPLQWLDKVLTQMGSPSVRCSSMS

As for “extended construct of the non-phosphorylated Smad2 MH2 domain (S2LMH2) (domain or fragment)”, in assay [1], the percent of the total population as trimer at 15 and 30 μM was found to be 50%; the stoichiometry N worked out at 3.

In assay [2], “full-length phosphomimetic Smad2 (S2FLEEE) (from UniProt Q15796 1-467) (natural protein)” registered a percent of the population as dimer at all concentrations analyzed of 36% and a percent of the population as trimer at 28.1 μM of 44.8%.
